# Article PMC7035113
# Target: SA2-SCC1 complex (SA2 80-1060 in complex with SCC1 281-420) (UniProt Q8N3U4)
# Assay: ITC
# Chain of SA2-SCC1 complex (SA2 80-1060 in complex with SCC1 281-420) (Q8N3U4 80-1060, chain 1 of 2): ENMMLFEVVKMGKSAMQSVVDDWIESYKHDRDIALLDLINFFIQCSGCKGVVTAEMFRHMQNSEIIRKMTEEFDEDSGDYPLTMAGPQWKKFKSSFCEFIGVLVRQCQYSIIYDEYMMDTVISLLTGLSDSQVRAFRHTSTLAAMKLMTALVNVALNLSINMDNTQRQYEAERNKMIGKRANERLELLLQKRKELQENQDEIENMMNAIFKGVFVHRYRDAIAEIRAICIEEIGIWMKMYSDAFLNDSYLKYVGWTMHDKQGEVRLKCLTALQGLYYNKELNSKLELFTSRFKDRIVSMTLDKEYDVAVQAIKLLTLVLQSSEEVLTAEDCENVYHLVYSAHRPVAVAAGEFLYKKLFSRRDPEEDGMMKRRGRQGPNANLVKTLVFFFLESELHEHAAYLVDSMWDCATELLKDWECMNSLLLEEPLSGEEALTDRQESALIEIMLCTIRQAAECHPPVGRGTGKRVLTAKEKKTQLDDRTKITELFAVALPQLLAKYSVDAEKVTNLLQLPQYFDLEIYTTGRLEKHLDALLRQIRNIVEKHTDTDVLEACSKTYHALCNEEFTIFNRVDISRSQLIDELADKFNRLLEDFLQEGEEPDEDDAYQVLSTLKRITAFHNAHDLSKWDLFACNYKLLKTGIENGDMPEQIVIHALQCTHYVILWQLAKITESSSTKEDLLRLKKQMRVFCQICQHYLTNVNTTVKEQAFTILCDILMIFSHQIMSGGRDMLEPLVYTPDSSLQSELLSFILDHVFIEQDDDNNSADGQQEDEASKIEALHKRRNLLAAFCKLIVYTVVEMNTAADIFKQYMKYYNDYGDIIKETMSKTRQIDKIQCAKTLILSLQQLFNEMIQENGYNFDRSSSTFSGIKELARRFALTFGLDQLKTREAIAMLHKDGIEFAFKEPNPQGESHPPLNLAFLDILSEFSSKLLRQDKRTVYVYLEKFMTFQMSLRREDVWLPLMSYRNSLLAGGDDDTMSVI
# Chain of SA2-SCC1 complex (SA2 80-1060 in complex with SCC1 281-420) (O60216 281-420, chain 2 of 2, further chain): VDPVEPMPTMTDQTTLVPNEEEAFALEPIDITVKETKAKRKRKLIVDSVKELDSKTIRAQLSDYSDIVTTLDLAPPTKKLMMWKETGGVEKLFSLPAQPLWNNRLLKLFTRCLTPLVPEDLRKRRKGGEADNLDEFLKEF
substance,measurement,value
Shugoshin (SGO1) peptide 331-341 (from UniProt Q5FBB7 331-341),Kd,13.5 µM
same,dH,-44.6 kJ/mol
